{
  "source": "paper PMC5506376",
  "tested_on": "CC(=O)N[C@H]1[C@@H](OP(=O)(O)OP(=O)(O)OC[C@H]2O[C@@H](n3ccc(=O)[nH]c3=O)[C@H](O)[C@@H]2O)O[C@H](C)[C@@H](NC(C)=O)[C@@H]1O",
  "assay": "purified protein",
  "conditions": "Mg2+",
  "data": [
    {"substance": "PglC (Campylobacter jejuni subsp. jejuni NCTC 11168 = ATCC 700819)", "values": [
      {"measurement": "Km", "value": "7.2 ± 1.1", "unit": "µM"}
    ]}
  ]
}
